Measured values taken from patent US20230265151A1, “GIP/GLP1 CO-AGONIST COMPOUNDS” (priority 2020, published 2023).
Residue numbers refer to the chain shown, from its start.

T1: human GIP receptor (human, UniProt P48546 22-466)
T1 construct: whole, on cells; also called hGIPR; human glucose-dependent insulinotropic polypeptide receptor
T1 sequence (looked up): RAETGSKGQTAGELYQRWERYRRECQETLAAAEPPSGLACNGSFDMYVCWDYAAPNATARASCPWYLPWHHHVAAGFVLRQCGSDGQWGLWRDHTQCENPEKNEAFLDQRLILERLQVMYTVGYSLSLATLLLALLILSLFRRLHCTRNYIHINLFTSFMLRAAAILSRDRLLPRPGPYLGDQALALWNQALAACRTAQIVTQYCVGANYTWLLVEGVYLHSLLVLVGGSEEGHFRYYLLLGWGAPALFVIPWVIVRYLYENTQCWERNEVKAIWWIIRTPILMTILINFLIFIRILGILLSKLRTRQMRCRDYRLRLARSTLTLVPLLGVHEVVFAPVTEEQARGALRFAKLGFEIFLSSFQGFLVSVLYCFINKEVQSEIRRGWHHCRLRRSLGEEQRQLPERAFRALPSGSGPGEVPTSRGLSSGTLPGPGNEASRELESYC

B1: Y-Aib-EGT-αMeF(2F)-TSDK((2-[2-(2-Amino-ethoxy)-ethoxy]-acetyl)2-(γ-Glu)-CO-(CH2)10-CH3)-Aib-I-αMeL-LD-Orn-K((2-[2-(2-Amino-ethoxy)-ethoxy]-acetyl)2-(γ-Glu)-CO-( … (peptide)
peptide: YXEGTXTSDKXIXLDXKAQXEFIXXLIEGGPSSGAPPPS
modifications: Aib2, αMeF(2F)6, K10(Z1), Aib11, αMeL13, Orn16, K17(Z1), Aib20, D-Glu24, αMeY25, C-term NH2; Z1=AEEA2-(γ-Glu)-CO-(CH2)10-CH3
B2: Y-Aib-EGT-αMeF(2F)-TSDK((2-[2-(2-Amino-ethoxy)-ethoxy]-acetyl)3-(γ-Glu)-CO-(CH2)10-CH3)-Aib-I-αMeL-LD-Orn-K((2-[2-(2-Amino-ethoxy)-ethoxy]-acetyl)3-(γ-Glu)-CO-( … (peptide)
peptide: B1 peptide
modifications: Aib2, αMeF(2F)6, K10(Z1), Aib11, αMeL13, Orn16, K17(Z1), Aib20, D-Glu24, αMeY25, C-term NH2; Z1=AEEA3-(γ-Glu)-CO-(CH2)10-CH3
B3: Y-Aib-EGT-αMeF(2F)-TSDY-Aib-I-αMeL-LD-Orn-K((2-[2-(2-Amino-ethoxy)-ethoxy]-acetyl)2-(γ-Glu)-CO-(CH2)12-CO2H)AQ-Aib-EFI-(D-Glu)-αMeY-LIEGGK((2-[2-(2-Amino-ethoxy … (peptide)
peptide: B1 peptide with K10Y, P31K
modifications: Aib2, αMeF(2F)6, Aib11, αMeL13, Orn16, K17(Z1), Aib20, D-Glu24, αMeY25, K31(Z1), C-term NH2; Z1=AEEA2-(γ-Glu)-CO-(CH2)12-CO2H
B4: Y-Aib-EGT-αMeF(2F)-TSD-αMeL-SI-aMeL-LD-Orn-K((2-[2-(2-Amino-ethoxy)-ethoxy]-acetyl)2-(γ-Glu)-CO-(CH2)12-CO2H)AQ-Aib-EFI-(D-Glu)-αMeY-LIEGGK((2-[2-(2-Amino-ethox … (peptide)
peptide: B1 peptide with K10X, X11S, P31K
modifications: Aib2, αMeF(2F)6, αMeL10, αMeL13, Orn16, K17(Z1), Aib20, D-Glu24, αMeY25, K31(Z1), C-term NH2; Z1=AEEA2-(γ-Glu)-CO-(CH2)12-CO2H
B5: Y-Aib-EGT-αMeF(2F)-TSD-Ac5c-SI-αMeL-LD-Orn-K((2-[2-(2-Amino-ethoxy)-ethoxy]-acetyl)2-(γ-Glu)-CO-(CH2)12-CO2H)AQ-Aib-EFI-(D-Glu)-αMeY-LIEGGK((2-[2-(2-Amino-ethox … (peptide)
peptide: B1 peptide with K10X, X11S, P31K
modifications: Aib2, αMeF(2F)6, Ac5c10, αMeL13, Orn16, K17(Z1), Aib20, D-Glu24, αMeY25, K31(Z1), C-term NH2; Z1=AEEA2-(γ-Glu)-CO-(CH2)12-CO2H
B6: Y-Aib-EGT-αMeF(2F)-TSD-Bip-SI-αMeL-LD-Orn-K((2-[2-(2-Amino-ethoxy)-ethoxy]-acetyl)2-(γ-Glu)-CO-(CH2)12-CO2H)AQ-Aib-EFI-(D-Glu)-αMeY-LIEGGK((2-[2-(2-Amino-ethoxy … (peptide)
peptide: B1 peptide with K10X, X11S, P31K
modifications: Aib2, αMeF(2F)6, Bip10, αMeL13, Orn16, K17(Z1), Aib20, D-Glu24, αMeY25, K31(Z1), C-term NH2; Z1=AEEA2-(γ-Glu)-CO-(CH2)12-CO2H
B7: Y-Aib-EGT-αMeF(2F)-TSD-1Nal-SI-αMeL-LD-Orn-K((2-[2-(2-Amino-ethoxy)-ethoxy]-acetyl)2-(γ-Glu)-CO-(CH2)12-CO2H)AQ-Aib-EFI-(D-Glu)-αMeY-LIEGGK((2-[2-(2-Amino-ethox … (peptide)
peptide: B1 peptide with K10X, X11S, P31K
modifications: Aib2, αMeF(2F)6, 1Nal10, αMeL13, Orn16, K17(Z1), Aib20, D-Glu24, αMeY25, K31(Z1), C-term NH2; Z1=AEEA2-(γ-Glu)-CO-(CH2)12-CO2H
B8: Y-Aib-EGT-αMeF(2F)-TSD-2Nal-SI-αMeL-LD-Orn-K((2-[2-(2-Amino-ethoxy)-ethoxy]-acetyl)2-(γ-Glu)-CO-(CH2)12-CO2H)AQ-Aib-EFI-(D-Glu)-αMeY-LIEGGK((2-[2-(2-Amino-ethox … (peptide)
peptide: B1 peptide with K10X, X11S, P31K
modifications: Aib2, αMeF(2F)6, 2Nal10, αMeL13, Orn16, K17(Z1), Aib20, D-Glu24, αMeY25, K31(Z1), C-term NH2; Z1=AEEA2-(γ-Glu)-CO-(CH2)12-CO2H
B9: Y-Aib-EGT-αMeF(2F)-TSD-OMeY-SI-αMeL-LD-Orn-K((2-[2-(2-Amino-ethoxy)-ethoxy]-acetyl)2-(γ-Glu)-CO-(CH2)12-CO2H)AQ-Aib-EFI-(D-Glu)-αMeY-LIEGGK((2-[2-(2-Amino-ethox … (peptide)
peptide: B1 peptide with K10X, X11S, P31K
modifications: Aib2, αMeF(2F)6, OMeY10, αMeL13, Orn16, K17(Z1), Aib20, D-Glu24, αMeY25, K31(Z1), C-term NH2; Z1=AEEA2-(γ-Glu)-CO-(CH2)12-CO2H
B10: Y-Aib-EGT-αMeF(2F)-TSD-hTyr-SI-αMeL-LD-Orn-K((2-[2-(2-Amino-ethoxy)-ethoxy]-acetyl)2-(γ-Glu)-CO-(CH2)12-CO2H)AQ-Aib-EFI-(D-Glu)-αMeY-LIEGGK((2-[2-(2-Amino-ethox … (peptide)
peptide: B1 peptide with K10X, X11S, P31K
modifications: Aib2, αMeF(2F)6, hTyr10, αMeL13, Orn16, K17(Z1), Aib20, D-Glu24, αMeY25, K31(Z1), C-term NH2; Z1=AEEA2-(γ-Glu)-CO-(CH2)12-CO2H

Experiments:
[1] = biological target: T2, human glucagon receptor (human, UniProt P47871 26-477); experiment: SPA competition vs [125I]-Gcg, hGcgR membranes
T2 construct: whole, on cells; also called hGCGR; hGcgR
T2 sequence (P47871 26-477): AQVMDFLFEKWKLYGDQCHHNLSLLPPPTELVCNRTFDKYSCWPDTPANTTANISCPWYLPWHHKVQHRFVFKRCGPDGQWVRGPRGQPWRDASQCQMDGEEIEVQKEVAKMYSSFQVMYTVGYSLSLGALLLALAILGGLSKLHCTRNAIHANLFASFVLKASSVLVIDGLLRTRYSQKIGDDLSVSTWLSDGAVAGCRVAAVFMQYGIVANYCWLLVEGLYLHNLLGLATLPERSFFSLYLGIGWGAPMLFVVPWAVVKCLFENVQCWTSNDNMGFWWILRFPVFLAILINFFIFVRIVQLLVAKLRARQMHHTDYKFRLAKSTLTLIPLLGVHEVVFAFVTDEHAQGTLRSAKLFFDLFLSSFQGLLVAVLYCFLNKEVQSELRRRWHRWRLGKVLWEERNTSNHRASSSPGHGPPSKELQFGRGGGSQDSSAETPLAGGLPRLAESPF
Method: The binding buffer contains 25 mM 4-(2-hydroxyethyl)-1-piperazineethanesulfonic acid (HEPES), pH 7.4, 2.5 mM CaCl₂, 1 mM MgCh, 0.1% (w/v) bacitracin (Research Products), 0.003% (w/v) Polyoxyethylenesorbitan monolaurate (TWEEN®-20), and Roche Complete™ Protease Inhibitors without EDTA. […] Plates are sealed and mixed on a plate shaker (setting 6) for 1 minute and read with a PerkinElmer Trilux MicroBeta® scintillation counter after 12 hours of incubation/settling time at room temperature.
Data are analyzed using four-parameter (curve maximum, curve minimum, IC₅₀, Hill slope) nonlinear regression routines (Genedata Screener, version 12.0.4, Genedata AG, Basal, Switzerland). […] Values for Kᵢ are reported as the geometric mean, with error expressed as the standard error of the mean (SEM) and n is equal to the number of independent replicates (determined in assays performed on different days).

[2] = biological target: T3, human GLP-1 receptor (human, UniProt P43220 24-463); experiment: SPA competition vs [125I]-GLP-1, hGLP-1R membranes
T3 construct: whole, on cells; also called hGLP-1R; human glucagon-like peptide-1 receptor
Outline: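 Kᵢ values are geometric means (SEM) over replicates run on separate days, derived from IC₅₀ of four-parameter curve fits. Buffer: HEPES 25 mM pH 7.4 with CaCl₂ 2.5 mM, MgCl₂ 1 mM, bacitracin 0.1%, TWEEN-20 0.003%, EDTA-free protease inhibitors.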

[3] = biological target: T1, human GIP receptor; experiment: SPA competition vs [125I]-GIP, hGIPR membranes

Row | Binder | Ki [1] | Ki [2] | Ki [3]
1 | B1 | 132 nM | 0.289 nM | 0.0161 nM
2 | B2 | 345 nM | 0.198 nM | 0.0245 nM
3 | B3 | 42 nM | 0.876 nM | 0.0296 nM
4 | B4 | 51.7 nM | 1.64 nM | 0.0741 nM
5 | B5 | 274 nM | 1.46 nM | 0.085 nM
6 | B6 | 299 nM | 5.17 nM | 0.252 nM
7 | B7 | 137 nM | 2.85 nM | 0.152 nM
8 | B8 | 114 nM | 4.35 nM | 0.297 nM
9 | B9 | 1920 nM | 1.15 nM | 0.208 nM
10 | B10 | 2000 nM | 0.789 nM | 0.171 nM
